The text below walks through data of US20170174750A1.

Test [1] deals with p210 BCR-ABL1 T315I kinase domain mutant stably expressed in Ba/F3 cells (Homo sapiens (Human)) (UniProt P11274).
The target of test [2] is endogenous Bcr-Abl of K562 cells (human leukemia Bcr-Abl+ cells; wild-type, unmutated) (human) (UniProt P11274).
Test [3] addresses p210 BCR-ABL1 E255V/T315I compound mutant stably expressed in Ba/F3 cells (Homo sapiens (Human)) (UniProt P11274).
In test [4] the target is p210 BCR-ABL1 T315I kinase domain mutant stably expressed in Ba/F3 cells (Homo sapiens (Human)) (UniProt P11274). This is another data set of the same source.
For test [5], the target named is p210 BCR-ABL1 E255V kinase domain mutant stably expressed in Ba/F3 cells (Homo sapiens (Human)) (UniProt P11274).
Test [6] deals with p210 Bcr-Abl (native, non-mutated) stably expressed in Ba/F3 cells (Homo sapiens (Human)) (UniProt P11274).

B1: EGFP-CC^mut3 (expressed from pEGFP-CC^mut3) (designed binder)
chain: MVDPVGFAEAWKAQFPDSEPPRMELRSVGDIEQELERAEARIRRDEQRVNQERFRMIYLETLLAKEKKSYDR
In test [1], B1 showed a colony forming assay (transformative ability) of Ba/F3-p210-T315I cells of 40%. Also, the colony forming assay (transformative ability) of K562 cells (fold decrease) in test [2] came to 3.

B2: mCherry-CC^mut3 fusion (expressed from pmCherry-CC^mut3) (designed binder)
chain: MVDPVGFAEAWKAQFPDSEPPRMELRSVGDIEQELERAEARIRRDEQRVNQERFRMIYLETLLAKEKKSYDR
As for B2, the colony formation assay of Ba/F3 cells expressing BCR-ABL1 E255V/T315I in test [3] came to 50%. Moreover, in test [4], the cell proliferation (MTS assay) of Ba/F3 cells expressing BCR-ABL1 T315I (fold reduction) amounted to 3 and the colony formation assay of Ba/F3 cells expressing BCR-ABL1 T315I (fold reduction) is > 10. In test [5], the cell proliferation (MTS assay) of Ba/F3 cells expressing BCR-ABL1 E255V (fold reduction) stood at 3 and the colony formation assay of Ba/F3 cells expressing BCR-ABL1 E255V (fold reduction) is > 10. In test [6], the apoptosis (Annexin V / 7-AAD, 72 h) of Ba/F3 cells expressing native BCR-ABL1 (fold increase) stood at 3 and the cell proliferation (MTS assay) of Ba/F3 cells expressing native BCR-ABL1 (fold reduction) is > 2.
